Substitutions are numbered along the chain they refer to. One block for each binder: values may come before it. Positions of bridges follow the written chain, without caps; N, C: chain ends. No end group written: not given here.
How the values were obtained:
[1] = biological target: T1, mouse delta opioid receptor (mORD1, msl-2) (Mus musculus); assay: competition
T1 chain: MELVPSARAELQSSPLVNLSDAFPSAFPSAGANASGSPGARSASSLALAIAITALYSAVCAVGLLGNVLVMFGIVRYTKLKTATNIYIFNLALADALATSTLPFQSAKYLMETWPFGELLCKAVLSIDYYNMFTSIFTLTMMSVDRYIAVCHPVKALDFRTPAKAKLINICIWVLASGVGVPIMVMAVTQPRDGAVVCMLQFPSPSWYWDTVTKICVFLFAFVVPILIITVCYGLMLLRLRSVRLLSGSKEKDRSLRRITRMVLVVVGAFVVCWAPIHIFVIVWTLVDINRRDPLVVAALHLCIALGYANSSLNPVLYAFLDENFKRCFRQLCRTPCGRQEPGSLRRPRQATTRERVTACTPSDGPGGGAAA

[2] = biological target: T2, rat mu opioid receptor (Rattus norvegicus, UniProt P33535); assay: competition
T2 chain: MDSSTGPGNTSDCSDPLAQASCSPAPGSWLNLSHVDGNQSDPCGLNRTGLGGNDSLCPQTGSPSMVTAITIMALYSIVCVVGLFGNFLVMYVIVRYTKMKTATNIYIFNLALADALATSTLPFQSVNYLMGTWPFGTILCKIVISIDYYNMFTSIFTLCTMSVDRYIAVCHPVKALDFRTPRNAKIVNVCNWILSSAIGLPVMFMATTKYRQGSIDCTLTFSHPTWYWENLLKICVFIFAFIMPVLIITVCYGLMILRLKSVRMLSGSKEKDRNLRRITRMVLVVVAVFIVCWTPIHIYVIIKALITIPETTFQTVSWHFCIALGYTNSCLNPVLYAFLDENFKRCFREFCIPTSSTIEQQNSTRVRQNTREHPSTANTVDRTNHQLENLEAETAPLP

[3] = biological target: T3, MOP2 (Mus musculus); assay: other (direct radioligand binding)
T3 chain: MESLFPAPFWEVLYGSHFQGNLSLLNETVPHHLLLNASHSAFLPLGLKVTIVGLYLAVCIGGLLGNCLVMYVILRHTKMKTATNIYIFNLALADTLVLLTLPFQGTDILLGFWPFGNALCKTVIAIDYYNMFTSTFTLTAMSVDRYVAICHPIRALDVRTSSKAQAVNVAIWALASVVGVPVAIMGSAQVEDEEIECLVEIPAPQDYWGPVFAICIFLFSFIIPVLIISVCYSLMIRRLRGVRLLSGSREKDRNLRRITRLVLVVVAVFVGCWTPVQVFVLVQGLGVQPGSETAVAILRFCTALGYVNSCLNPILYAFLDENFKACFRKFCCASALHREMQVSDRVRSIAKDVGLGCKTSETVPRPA

[4] = biological target: T4, delta opioid receptor D128N mutant (Mus musculus); assay: other (direct radioligand binding)
T4 chain: T1 chain with D128N

[5] = biological target: T1, mouse delta opioid receptor (mORD1, …); assay: competition
[6] = biological target: T5, mouse kappa opioid receptor (mORK1, msl-1) (Mus musculus); assay: competition
T5 chain: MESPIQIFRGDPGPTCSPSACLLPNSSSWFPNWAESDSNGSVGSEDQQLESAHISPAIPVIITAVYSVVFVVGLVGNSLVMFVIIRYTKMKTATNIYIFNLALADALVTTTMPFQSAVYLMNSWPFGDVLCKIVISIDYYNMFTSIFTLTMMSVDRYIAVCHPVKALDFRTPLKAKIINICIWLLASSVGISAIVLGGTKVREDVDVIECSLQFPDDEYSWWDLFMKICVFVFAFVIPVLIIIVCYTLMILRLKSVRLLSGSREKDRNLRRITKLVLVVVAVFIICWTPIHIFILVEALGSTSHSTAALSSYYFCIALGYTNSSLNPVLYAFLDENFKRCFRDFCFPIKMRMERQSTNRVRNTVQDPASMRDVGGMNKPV

- Ki [1]: 1 nM
- Ki [2]: 1 nM
- binding result [3]: no binding
- binding result [4]: no binding
B1: beta-Endorphin (protein)
chain: WCLESSQCQDLTTESNLLECIRACKPDLSAETPMFPGNGDEQPLTENPRKYVMGHFRWDRFGRRNSSSSGSSGAGQKREDVSAGEDCGPLPEGGPEPRSDGAKPGPREGKRSYSMEHFRWGKPVGKKRRPVKVYPNGAEDESAEAFPLEFKRELTGQRLREGDGPDGPADDGAGAQADLEHSLLVAAEKKDEGPYRMEHFRWGSPPKDKRYGGFMTSEKSQTPLVTLFKNAIIKNAYKKGE

- IC50 [5]: > 1000 nM
- IC50 [6]: > 1000 nM
Binder: SANSNPAMAPRERKAGCKNFFWKTFTSC (disulfide 17-28 (inferred)) [SRIF]
